Test results from patent publication US7217693B2, “Human G protein-coupled receptor expressed in the dorsal root ganglia” (National Research Council of Canada, priority 1997, dated 2007).

Target: T1, human clone 24 (Homo sapiens, UniProt Q96LB2, E310Q/I312T/I5V)
T1 construct: expressed in transfected cells
Test: Calcium signaling (FURA-2) in stably transfected HEK293 cells 293/pcDNA3-HML-HA24
Assay type: cell-based
Conditions: stably transfected HEK293 cell line 293/pcDNA3-HML-HA24, FURA-2 AM, peptides added successively
Description: The coding sequence of human clone 24 was transferred into a pcDNA3 vector and modified to add a haemaglutinin tag at the C-terminus of the receptor sequence. This clone, designated as pcDNA3-HML-HA24 was transfected into HEK293 cells using a modified CaCl2 method (Maniatis, Molecular Cloning: A Laboratory Manual, Cold Spring Harbor Laboratory Press (1989)). The cells were maintained in culture medium at 37° C., 5% CO2 and diluted 10 fold every 3 days.
The cells were inoculated in 90 mm tissue culture dishes (5×10^5 cells per flask) in Dulbecco's Modified Essential Medium (DMEM, Gibco BRL), supplemented with 10% fetal bovine serum (FBS), 100 U/ml penicillin, 100 μg/ml streptomycin and 0.25 μg/ml fungizone. One day after inoculation, cells were transiently transfected with 30 μg of plasmid DNA per dish. The cells were harvested 48 hours post transfection for analysis. The expression of the gene was first checked by immunoprecipitation and western blotting with an anti-haemaglutinin antibody. A protein of approximately 43 KD was detected in stably as well as transiently transfected HEK293 cells, but not in control cells.
Stably transfected HEK293 cells were obtained after approximately 21 days of selection in culture medium containing 800 μg/ml G418. Calcium signaling measurement was performed with one of these stably transfected cell line, 293/pcDNA3-HML-HA24. The cells were grown on a 24 mm round glass cover slides to 50–70% confluence. […] The calcium displacement was measured using a PTI (Photon Technology International) D104 photometer equipped with a PTI Delta RAM High speed multiwavelength illuminator, a PTI SC500 Shutter controller, a PTI LPS220 ARC lamp supply and the PTI FELIX software, v.1.2. […] The cells were exposed to 340 and 380 nm light and the 510 nm light emitted by the cells was recorded. […]

T1 sequence (Q96LB2 whole entry I5V/E310Q/I312T): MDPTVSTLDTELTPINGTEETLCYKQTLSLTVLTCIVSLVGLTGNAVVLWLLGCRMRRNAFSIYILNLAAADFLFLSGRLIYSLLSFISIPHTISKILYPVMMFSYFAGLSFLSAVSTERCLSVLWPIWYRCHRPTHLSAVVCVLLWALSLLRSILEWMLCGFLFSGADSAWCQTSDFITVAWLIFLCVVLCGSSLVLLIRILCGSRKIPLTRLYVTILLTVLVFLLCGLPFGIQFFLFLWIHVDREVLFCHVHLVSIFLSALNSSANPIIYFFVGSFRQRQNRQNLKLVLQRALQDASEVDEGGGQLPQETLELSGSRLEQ

Substance	calcium displacement response upon stimulation
Angiotensin I (DRVYIHPFHL) [peptide added to DRR-transfected cells in calcium signaling assay]	no response
angiotensin II (DRVYIHPF) [peptide added to DRR-transfected cells in calcium signaling assay]	a significant response
angiotensin III	a significant response
